Data set [1] concerns yeast cells. The experiment in a line: Growth of yeast cells expressing Pex5p variants. The settings on record: n = 3; for growth in oleate: oleate as sole carbon source (YNO medium). The class given is cell-based, S. cerevisiae. The source says:
Synthetic complete (SC) medium consisted of 0.17% (w/v) yeast nitrogen base (YNB) without amino acids, 0.5% (w/v) ammonium sulfate, and 0.3% (w/v) glucose (pH 6.0) supplemented with appropriate amino acids ([Schummer et al. 2017]). YNO medium contained 0.1% (v/v) oleic acid, 0.05% (v/v) Tween 40, 0.5% (w/v) ammonium sulfate, and 0.17% (w/v) yeast nitrogen base without amino acids, adjusted to pH 6.0 and supplemented with appropriate amino acids. For growth under peroxisome-proliferating conditions, cells were cultured at 30 °C in SC medium until they reached an optical density at 600 nm (OD600) of 1–1.5 and then shifted to YNO medium to induce peroxisome proliferation. Cells were grown for further 12–16 h or as indicated. For growth of cells in glucose medium, SC medium was supplemented with 2% (w/v) glucose.

The subject of data set [2] is GFP-SKL import in pex5Δ yeast cells. Kind of data set: Fluorescence microscopy, import of GFP-SKL in cells expressing Pex5p variants. The format is cell-based, S. cerevisiae. The settings on record: pex5Δ cells expressing plasmid-encoded Pex5p variant and GFP-SKL, grown in oleate. As for the experimental part: Cells expressing distinct Pex5p variants (wildtype, Pex5p^2A or Pex5p^2D) and GFP-SKL were grown overnight in 50 ml YNO medium supplemented with 0.1% (w/v) glucose to an OD600 of 1–1.5. Aliquots of 5.4 ml were taken and formaldehyde was added to a final concentration of 3.7% (v/v). Samples were incubated for 10 min at RT with slight agitation. Cells were collected by centrifugation (5 min at 2000 g), resuspended in 1 ml of 0.1 M potassium phosphate buffer (pH 6.8) containing 3.7% (v/v) formaldehyde and incubated for 1 h at RT with slight agitation. Following centrifugation (30 s at 16,000 g), cells were resuspended in 1 ml of 0.1 M potassium phosphate buffer (pH 6.8) containing 10 mM ethanolamine and incubated for further 10 min at RT. Subsequently, cells were washed twice with phosphate-buffered saline (PBS) and resuspended in 10–20 µl of PBS containing 0.1% (v/v) Triton X-100. Fixed cells were analyzed within 48 h after preparation.
Fluorescence microscopy was performed using a Zeiss Axio Observer.Z1 microscope equipped with an alpha Plan-Aprochromat 100× objective and an AxioCam MR R3. GFP signal was visualized with a 38 HE filterset from Zeiss. Images were processed using Adobe Photoshop CS5 (version 12.0.4 ×64; Adobe Systems Incorporated). To document the structural integrity of cells, bright field images were acquired, adjusted in a way that only the cell boundaries were visible and subsequently added into the blue channel in Photoshop as reported before ([Motley and Hettema 2007]).

Data set [3] is described as follows: Circular dichroism, folding of Pex5p variants. The class given is physicochemical. The settings on record: far-UV CD; 25 mM phosphate buffer pH 7.5, 150 mM NaF; 0.2 mg ml^−1. On the procedure:
Circular dichroism (CD) experiments were performed on a J-810 spectropolarimeter (Jasco). Proteins were dialyzed against 25 mM phosphate buffer (pH 7.5), 150 mM NaF. Far-UV spectra were recorded between 180 and 280 nm, using a 1-mm cuvette and a concentration of 0.2 mg ml^−1 protein. The machine settings were 1 nm bandwidth, 1 s response, 1 nm data pitch and 100 nm min^−1 scan speed.

In data set [4] the test system is docking complex (Pex14p/Pex17p/Pex13p). Kind of data set: Association of Pex5p variants with the peroxisomal docking complex. The settings on record: TPA-tagged Pex5p variants, digitonin-solubilized membrane fractions; immunoblot. The format is binding, S. cerevisiae. As for the experimental part: Pex5p was affinity-purified from crude membrane and cytosolic fractions prepared from oleic acid-induced cells expressing TPA-tagged Pex5p as described before with slight modifications ([Agne et al. 2003]; [Schafer et al. 2004]). In brief, cytosolic and membrane fractions were prepared as described above using lysis buffer containing 10% (v/v) glycerol. For the analysis of Pex5p phosphorylation sites, crude membrane fractions were resuspended in glycerol-containing lysis buffer, the protein concentration was adjusted to 5 mg ml^−1, and proteins were solubilized using 1% (v/v) Triton X-100. Unsolubilized material was removed by centrifugation (100,000 g, 1 h, 4 °C). The cleared detergent extracts as well as cytosolic fractions were subjected to affinity purification via IgG Sepharose. Proteins bound to the matrix were eluted by incubation with AcTEV protease (Thermo Fisher Scientific/Invitrogen) followed by addition of Ni-NTA agarose to remove the His-tagged TEV protease. Eluted proteins were collected by centrifugation and precipitated by adding the fivefold volume of ice-cold acetone followed by incubation at −20 °C for at least 1 h. […]
Immunoblot analyses were performed according to standard procedures. […] Quantification of immunoblot signals (Supplementary Figure 1E; n = 3) was performed using the software Image Studio Lite (LI-COR Biosciences).
On the technique in general: A western blot detects proteins with antibodies after separation by electrophoresis.

B1: Pex5p^WT: Pex5p wildtype, PTS1 receptor of S. cerevisiae (protein)
chain: MDVGSCSVGNNPLAQLHKHTQQNKSLQFNQKNNGRLNESPLQGTNKPGISEAFISNVNAISQENMANMQRFINGEPLIDDKRRMEIGPSSGRLPPFSNVHSLQTSANPTQIKGVNDISHWSQEFQGSNSIQNRNADTGNSEKAWQRGSTTASSRFQYPNTMMNNYAYASMNSLSGSRLQSPAFMNQQQSGRSKEGVNEQEQQPWTDQFEKLEKEVSENLDINDEIEKEENVSEVEQNKPETVEKEEGVYGDQYQSDFQEVWDSIHKDAEEVLPSELVNDDLNLGEDYLKYLGGRVNGNIEYAFQSNNEYFNNPNAYKIGCLLMENGAKLSEAALAFEAAVKEKPDHVDAWLRLGLVQTQNEKELNGISALEECLKLDPKNLEAMKTLAISYINEGYDMSAFTMLDKWAETKYPEIWSRIKQQDDKFQKEKGFTHIDMNAHITKQFLQLANNLSTIDPEIQLCLGLLFYTKDDFDKTIDCFESALRVNPNDELMWNRLGASLANSNRSEEAIQAYHRALQLKPSFVRARYNLAVSSMNIGCFKEAAGYLLSVLSMHEVNTNNKKGDVGSLLNTYNDTVIETLKRVFIAMNRDDLLQEVKPGMDLKRFKGEFSF
modifications: left off: His6, N-terminal, state not stated
notes: Pex5p wildtype, PTS1 receptor of S. cerevisiae
Regarding B1, the growth on glucose entry in data set [1] (SC medium containing 2% glucose, compared to Pex5p^WT cells) is given as “equivalent to Pex5p^WT cells”. Moreover, the growth in oleate entry in data set [1] (listed as Pex5p^2A) is “grew similar to wildtype cells in oleate”; in data set [1] (listed as Pex5p^2D), “significant growth defect”. Moreover, the “subcellular distribution of GFP-SKL” value in data set [2] was “import of GFP-SKL is restored”; in data set [2] (listed as Pex5p^2A) it was “no import phenotype”; in data set [2] (listed as Pex5p^2D), “both a punctate staining and diffuse cytosolic fluorescence, suggesting a reduced import of GFP-SKL into peroxisomes”. In addition, the folding entry in data set [3] is recorded as “folded with no major structural changes”. In addition, the “composition of docking complex and abundance of individual proteins” value in data set [4] is listed as “comparable irrespective of the Pex5p variant expressed”.
